Measurements published in patent US20160116478A1 (ORDER MADE MEDICAL RESEARCH, published 2016).

How the values were obtained:
[1] = target: T1, partial protein of human LGR5 (amino acids 319 to 563) (human, UniProt O75473 319-563); assay: Western blot of E. coli lysate expressing the partial protein
T1 construct: Run as crude E. coli culture lysate, denatured, on SDS-PAGE and Western blot; also called LGR5 partial protein; partial protein of LGR5; not shown: N-terminal Trx-, S- and His-tags from pET32a vector; C-terminal His-tag from pET32a vector
T1 sequence: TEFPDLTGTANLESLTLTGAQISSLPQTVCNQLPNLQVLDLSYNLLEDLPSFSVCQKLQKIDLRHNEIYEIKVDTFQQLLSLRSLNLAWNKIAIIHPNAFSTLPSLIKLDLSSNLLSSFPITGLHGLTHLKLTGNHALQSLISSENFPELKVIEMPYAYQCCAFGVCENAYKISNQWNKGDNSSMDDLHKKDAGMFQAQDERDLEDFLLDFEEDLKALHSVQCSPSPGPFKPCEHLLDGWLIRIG
Procedure: (§1) After electrophoresis, the proteins were transferred onto a PVDF membrane. Skimmed milk dissolved at a concentration of 5% (w/v) in TBS-T was used to block the membrane at room temperature for 30 minutes, and the membrane was washed twice with TBS-T. Among the monoclonal antibodies obtained in Example 1. (7), Mu2C15 was diluted to 1 μg/mL with TBS-T and reacted with the membrane for 1 hour at room temperature. After washing three times with TBS-T, anti-mouse IgG polyclonal antibody-HRP label was diluted 100,000-fold with TBS-T for use as a secondary antibody. This dilution was reacted with the membrane at room temperature for 30 minutes, followed by washing three times with TBS-T. The membrane was soaked in Immobilon and then wrapped, followed by signal detection with LAS-3000 (FIG. 15b)

[2] = target: T2, partial protein of human LGR4 (amino acids 311 to 577) (human, UniProt Q9BXB1 311-577); assay: as above
T2 construct: Run as crude E. coli culture lysate, denatured, on SDS-PAGE and Western blot; also called LGR4 partial protein; partial protein of LGR4; not shown: N-terminal Trx-, S- and His-tags from pET32b vector; C-terminal His-tag from pET32b vector
T2 sequence: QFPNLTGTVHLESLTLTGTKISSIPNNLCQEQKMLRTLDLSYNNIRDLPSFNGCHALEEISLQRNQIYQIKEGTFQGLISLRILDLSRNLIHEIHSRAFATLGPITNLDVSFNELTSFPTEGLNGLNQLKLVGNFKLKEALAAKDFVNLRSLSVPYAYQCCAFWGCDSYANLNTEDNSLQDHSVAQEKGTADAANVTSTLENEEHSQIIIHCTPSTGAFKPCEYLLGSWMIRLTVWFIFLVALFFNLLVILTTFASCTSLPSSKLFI
Procedure: as §1

B1: Mu2C15 antibody (monoclonal antibody produced by Mouse-Mouse hybridoma Mu2C15) (antibody, V domains shown)
VH: QVQLQQSAAELARPGASVKMSCKASGYTFTTYTMHWVKQRPGQGLEWIGYINPNNGYTEFNQKFKDKTTLTADKSSSTAYMQLSSLTSEDSAVYYCARRDYYRFSTGFAYWGQGTLVTVSA
VL: DVVMTQTPLSLPVSLGDQASISCRSSQSLVHTNGNTYLHWYLQKPGQSPKLLIYKVSNRFSGVPDRFSGSGSGTDFTLKISRVEAEDLGVYFCSQSTHVPYTFGGGTKLEIK
notes: Mouse hybridoma antibody; Used as culture supernatant or Protein G purified, and unlabeled when immobilized in the sandwich ELISA; also called clone No. Mu2C15; anti-LGR6 antibody
B1: no binding (tested: 1 µg/mL) [1]; no binding (tested: 1 µg/mL) [2].
